# According to IntAct's records for PubMed 17641689:
# B1: Retinoic acid receptor RXR-alpha (Mus musculus), P28700 (parent)
# chain: MDTKHFLPLDFSTQVNSSSLNSPTGRGSMAVPSLHPSLGPGIGSPLGSPGQLHSPISTLSSPINGMGPPFSVISSPMGPHSMSVPTTPTLGFGTGSPQLNSPMNPVSSTEDIKPPLGLNGVLKVPAHPSGNMASFTKHICAICGDRSSGKHYGVYSCEGCKGFFKRTVRKDLTYTCRDNKDCLIDKRQRNRCQYCRYQKCLAMGMKREAVQEERQRGKDRNENEVESTSSANEDMPVEKILEAELAVEPKTETYVEANMGLNPSSPNDPVTNICQAADKQLFTLVEWAKRIPHFSELPLDDQVILLRAGWNELLIASFSHRSIAVKDGILLATGLHVHRNSAHSAGVGAIFDRVLTELVSKMRDMQMDKTELGCLRAIVLFNPDSKGLSNPAEVEALREKVYASLEAYCKHKYPEQPGRFAKLLLRLPALRSIGLKCLEHLFFFKLIGDTPIDTFLMEMLEAPHQAT
# partner: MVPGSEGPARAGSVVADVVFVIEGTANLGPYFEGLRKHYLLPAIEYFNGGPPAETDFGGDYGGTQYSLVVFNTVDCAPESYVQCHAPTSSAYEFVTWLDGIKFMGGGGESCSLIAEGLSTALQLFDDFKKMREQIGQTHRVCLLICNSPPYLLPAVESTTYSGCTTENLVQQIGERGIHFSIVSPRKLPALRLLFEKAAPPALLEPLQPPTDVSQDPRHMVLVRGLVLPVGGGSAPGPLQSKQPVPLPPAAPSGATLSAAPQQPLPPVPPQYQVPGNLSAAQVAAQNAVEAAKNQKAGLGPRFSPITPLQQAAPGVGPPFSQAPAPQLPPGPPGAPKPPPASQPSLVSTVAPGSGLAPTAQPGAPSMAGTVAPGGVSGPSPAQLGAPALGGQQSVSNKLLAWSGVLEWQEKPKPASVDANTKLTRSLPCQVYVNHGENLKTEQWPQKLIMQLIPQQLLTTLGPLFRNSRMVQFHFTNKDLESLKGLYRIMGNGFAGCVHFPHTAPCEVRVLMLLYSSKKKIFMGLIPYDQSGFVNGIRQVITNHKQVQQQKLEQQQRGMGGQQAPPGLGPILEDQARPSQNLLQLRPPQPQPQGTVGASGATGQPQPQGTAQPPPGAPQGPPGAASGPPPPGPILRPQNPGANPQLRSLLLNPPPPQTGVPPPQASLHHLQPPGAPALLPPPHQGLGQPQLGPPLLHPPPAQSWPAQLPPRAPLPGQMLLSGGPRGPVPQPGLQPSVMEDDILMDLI
# B2: Retinoic acid receptor alpha (Homo sapiens), P10276 (parent)
# chain: MASNSSSCPTPGGGHLNGYPVPPYAFFFPPMLGGLSPPGALTTLQHQLPVSGYSTPSPATIETQSSSSEEIVPSPPSPPPLPRIYKPCFVCQDKSSGYHYGVSACEGCKGFFRRSIQKNMVYTCHRDKNCIINKVTRNRCQYCRLQKCFEVGMSKESVRNDRNKKKKEVPKPECSESYTLTPEVGELIEKVRKAHQETFPALCQLGKYTTNNSSEQRVSLDIDLWDKFSELSTKCIIKTVEFAKQLPGFTTLTIADQITLLKAACLDILILRICTRYTPEQDTMTFSDGLTLNRTQMHNAGFGPLTDLVFAFANQLLPLEMDDAETGLLSAICLICGDRQDLEQPDRVDMLQEPLLEALKVYVRKRRPSRPHMFPKMLMKITDLRSISAKGAERVITLKMEIPGSMPPLIQEMLENSEGLDTLSGQPGGGGRDGGGLAPPPGSCSPSLSPSSNRSSPATHSP
# partner: B1 partner
# Variants of: B1
# Settings: with med25_human MED25, Q71SY5
row,Variant,effect of a mutation on the interaction
1,MDTKHFLPLDFSTQVNSSSLNSPTGRGSMAVPSLHPSLGPGIGSPLGSPGQLHSPISTLSSPINGMGPPFSVISSPMGPHSMSVPTTPTLGFGTGSPQLNSPMNPVSSTEDIKPPLGLNGVLKVPAHPSGNMASFTKHICAICGDRSSGKHYGVYSCEGCKGFFKRTVRKDLTYTCRDNKDCLIDKRQRNRCQYCRYQKCLAMGMKREAVQEERQRGKDRNENEVESTSSANEDMPVEKILEAELAVEPKTETYVEANMGLNPSSPNDPVTNICQAADKQLFTLVEWAKRIPHFSELPLDDQVILLRAGWNELLIASFSHRSIAVKDGILLATGLHVHRNSAHSAGVGAIFDRVLTELVSKMRDMQMDKTELGCLRAIVLFNPDSKGLSNPAEVEALREKVYASLEAYCKHKYPEQPGRFAKLLLRLPALRSIGLKCLEHLFFFKLIGDTPIDTALMEMLEAPHQAT [F455A],disrupting interaction

# Variants of: B2
# Settings: with med25_human MED25, Q71SY5
row,Variant,effect of a mutation on the interaction
1,MASNSSSCPTPGGGHLNGYPVPPYAFFFPPMLGGLSPPGALTTLQHQLPVSGYSTPSPATIETQSSSSEEIVPSPPSPPPLPRIYKPCFVCQDKSSGYHYGVSACEGCKGFFRRSIQKNMVYTCHRDKNCIINKVTRNRCQYCRLQKCFEVGMSKESVRNDRNKKKKEVPKPECSESYTLTPEVGELIEKVRKAHQETFPALCQLGKYTTNNSSEQRVSLDIDLWDKFSELSTKCIIKTVEFAKQLPGFTTLTIADQITLLKAACLDILILRICTRYTPEQDTMTFSDGLTLNRTQMHNAGFGPLTDLVFAFANQLLPLEMDDAETGLLSAICLICGDRQDLEQPDRVDMLQEPLLEALKVYVRKRRPSRPHMFPKMLMKITDLRSISAKGAERVITLKMEIPGSMPPLIQQMLENSEGLDTLSGQPGGGGRDGGGLAPPPGSCSPSLSPSSNRSSPATHSP [E412Q],disrupting interaction
2,MASNSSSCPTPGGGHLNGYPVPPYAFFFPPMLGGLSPPGALTTLQHQLPVSGYSTPSPATIETQSSSSEEIVPSPPSPPPLPRIYKPCFVCQDKSSGYHYGVSACEGCKGFFRRSIQKNMVYTCHRDKNCIINKVTRNRCQYCRLQKCFEVGMSKESVRNDRNKKKKEVPKPECSESYTLTPEVGELIEKVRKAHQETFPALCQLGKYTTNNSSEQRVSLDIDLWDKFSELSTKCIIKTVEFAKQLPGFTTLTIADQITLLKAACLDILILRICTRYTPEQDTMTFSDGLTLNRTQMHNAGFGPLTDLVFAFANQLLPLEMDDAETGLLSAICLICGDRQDLEQPDRVDMLQEPLLEALKVYVRKRRPSRPHMFPKMLMKITDLRSISAKGAERVITLKMEIPGSMPPLIQEMLQNSEGLDTLSGQPGGGGRDGGGLAPPPGSCSPSLSPSSNRSSPATHSP [E415Q],disrupting interaction

# Variants of: B2
# Settings: with med25_human MED25, Q71SY5
# Remark: another data set of the same source
row,Variant,effect of a mutation on the interaction
1,MASNSSSCPTPGGGHLNGYPVPPYAFFFPPMLGGLSPPGALTTLQHQLPVSGYSTPSPATIETQSSSSEEIVPSPPSPPPLPRIYKPCFVCQDKSSGYHYGVSACEGCKGFFRRSIQKNMVYTCHRDKNCIINKVTRNRCQYCRLQKCFEVGMSKESVRNDRNKKKKEVPKPECSESYTLTPEVGELIEKVRKAHQETFPALCQLGKYTTNNSSEQRVSLDIDLWDKFSELSTKCIIKTVEFAKQLPGFTTLTIADQITLLKAACLDILILRICTRYTPEQDTMTFSDGLTLNRTQMHNAGFGPLTDLVFAFANQLLPLEMDDAETGLLSAICLICGDRQDLEQPDRVDMLQEPLLEALKVYVRKRRPSRPHMFPKMLMKITDLRSISAKGAERVITLKMEIPGSMPPAIQEMLENSEGLDTLSGQPGGGGRDGGGLAPPPGSCSPSLSPSSNRSSPATHSP [L409A],disrupting interaction
2,MASNSSSCPTPGGGHLNGYPVPPYAFFFPPMLGGLSPPGALTTLQHQLPVSGYSTPSPATIETQSSSSEEIVPSPPSPPPLPRIYKPCFVCQDKSSGYHYGVSACEGCKGFFRRSIQKNMVYTCHRDKNCIINKVTRNRCQYCRLQKCFEVGMSKESVRNDRNKKKKEVPKPECSESYTLTPEVGELIEKVRKAHQETFPALCQLGKYTTNNSSEQRVSLDIDLWDKFSELSTKCIIKTVEFAKQLPGFTTLTIADQITLLKAACLDILILRICTRYTPEQDTMTFSDGLTLNRTQMHNAGFGPLTDLVFAFANQLLPLEMDDAETGLLSAICLICGDRQDLEQPDRVDMLQEPLLEALKVYVRKRRPSRPHMFPKMLMKITDLRSISAKGAERVITLKMEIPGSMPPLAQEMLENSEGLDTLSGQPGGGGRDGGGLAPPPGSCSPSLSPSSNRSSPATHSP [I410A],disrupting interaction

# Variants of: B2
# Settings: with med25_human MED25, Q71SY5
# Remark: another data set of the same source
row,Variant,effect of a mutation on the interaction
1,MASNSSSCPTPGGGHLNGYPVPPYAFFFPPMLGGLSPPGALTTLQHQLPVSGYSTPSPATIETQSSSSEEIVPSPPSPPPLPRIYKPCFVCQDKSSGYHYGVSACEGCKGFFRRSIQKNMVYTCHRDKNCIINKVTRNRCQYCRLQKCFEVGMSKESVRNDRNKKKKEVPKPECSESYTLTPEVGELIEKVRKAHQETFPALCQLGKYTTNNSSEQRVSLDIDLWDKFSELSTKCIIKTVEFAKQLPGFTTLTIADQITLLKAACLDILILRICTRYTPEQDTMTFSDGLTLNRTQMHNAGFGPLTDLVFAFANQLLPLEMDDAETGLLSAICLICGDRQDLEQPDRVDMLQEPLLEALKVYVRKRRPSRPHMFPKMLMKITDLRSISAKGAERVITLKMEIPGSMPPLIQEMAENSEGLDTLSGQPGGGGRDGGGLAPPPGSCSPSLSPSSNRSSPATHSP [L414A],disrupting interaction
2,MASNSSSCPTPGGGHLNGYPVPPYAFFFPPMLGGLSPPGALTTLQHQLPVSGYSTPSPATIETQSSSSEEIVPSPPSPPPLPRIYKPCFVCQDKSSGYHYGVSACEGCKGFFRRSIQKNMVYTCHRDKNCIINKVTRNRCQYCRLQKCFEVGMSKESVRNDRNKKKKEVPKPECSESYTLTPEVGELIEKVRKAHQETFPALCQLGKYTTNNSSEQRVSLDIDLWDKFSELSTKCIIKTVEFAKQLPGFTTLTIADQITLLKAACLDILILRICTRYTPEQDTMTFSDGLTLNRTQMHNAGFGPLTDLVFAFANQLLPLEMDDAETGLLSAICLICGDRQDLEQPDRVDMLQEPLLEALKVYVRKRRPSRPHMFPKMLMKITDLRSISAKGAERVITLKMEIPGSMPPLIQEALENSEGLDTLSGQPGGGGRDGGGLAPPPGSCSPSLSPSSNRSSPATHSP [M413A],disrupting interaction
